Results taken from PMC5039624 (Scientific Reports, 2016).
Where a chain is given by its changes, count along the chain named. Bridge positions count the residues as written; N and C are the ends. Peptide text beside a SMILES is read from it.

What was measured:
[1] = molecular target: isolated voltage-sensor domain of the voltage-gated potassium channel KvAP (VSDK), wild type (UniProt Q9YDF8); experiment: pull-down
[2] = Liposome centrifugation assay, POPG liposomes; format: physicochemical; details: LUVs extruded through 0.1 μm filters, 10 mM HEPES pH 7.4, 150 mM NaCl; 10 μM toxin, 1 h room temperature, 30 min at 100,000 g; unbound toxin in supernatant by RP-HPLC; fit to partition equilibrium equation
Description: To investigate whether the micelle-binding interface identified by NMR-CSM faithfully reports on the lipid-binding interface of the peptide we used a previously reported liposome centrifugation assay[30] to study the interaction between VSTx1 and phospholipids with different head groups. VSTx1 was incubated with liposomes of different composition, then the liposomes were pelleted using ultracentrifugation and the amount of unbound VSTx1 in the supernatant was determined using reverse-phase (RP) HPLC (Fig. 4a,b). Partition coefficients (Kp) for binding of VSTx1 to liposomes were calculated by fitting to the partition equilibrium equation (see Eqn (3) in Materials and Methods). The Kp for binding to 1-palmitoyl-2-oleoyl-sn-glycero-3-phosphoglycerol (POPG) liposomes was 2.4 × 10^5 while the Kp values for binding to POPC or 1-palmitoyl-2-oleoyl-sn-glycero-3-phosphoethanolamine (POPE) liposomes were close to 0 (both <10^2) (Fig. 4e).
Large unilamellar vesicles (LUVs) were prepared by drying lipids (POPG and/or POPC, 25 mg/mL) under nitrogen gas, drying the lipid pellet under vacuum, and resuspending the lipids by vortexing for 1 h in an aqueous buffer containing 10 mM HEPES pH 7.4, and 150 mM NaCl. Vesicles were extruded 20 times using 0.1 μm polycarbonate filters (Avanti Polar Lipids, Inc.). Aqueous solutions of the toxin (10 μM) were incubated with varying amounts of vesicles for 1 h at room temperature, then the vesicles were centrifuged for 30 min at 100,000 g before the toxin concentration in the aqueous phase was determined. Aqueous concentrations of VSTx1 were quantified by RP-HPLC using a monolithic C18 column (4.6 × 100 mm). The toxin was eluted with a linear gradient of 10–50% solvent B (0.046% TFA in acetonitrile) in solvent A (0.05% TFA in water) over 10 min at a flow rate of 3 ml/min. The partition coefficients (Kp) for the binding of VSTx1 to liposomes were calculated by fitting to the partition equilibrium equation: […]

[3] = molecular target: T1, isolated voltage-sensor domain of the voltage-gated potassium channel KvAP (VSDK), wild type (UniProt Q9YDF8 19-160); experiment: NMR titration; details: both partners purified
T1 construct: also called WT VSDK; KvAP voltage sensor
T1 sequence: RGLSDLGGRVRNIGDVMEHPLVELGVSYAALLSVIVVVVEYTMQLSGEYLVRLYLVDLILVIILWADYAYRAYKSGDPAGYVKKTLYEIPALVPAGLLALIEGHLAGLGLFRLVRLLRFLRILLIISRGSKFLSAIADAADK

[4] = molecular target: T2, VSDK E45A (UniProt Q9YDF8 19-160, E45A); experiment: pull-down; details: both partners purified
T2 sequence: T1 sequence with E40A

[5] = molecular target: T3, VSDK E107A (UniProt Q9YDF8 19-160, E107A); experiment: pull-down; details: both partners purified
T3 sequence: T1 sequence with E102A

[6] = molecular target: T4, VSDK Q49A (UniProt Q9YDF8 19-160, Q49A); experiment: pull-down; details: both partners purified
T4 sequence: T1 sequence with Q44A

[7] = molecular target: T5, VSDK S51A (UniProt Q9YDF8 19-160, S51A); experiment: pull-down; details: both partners purified
T5 sequence: T1 sequence with S46A

[8] = molecular target: T6, VSDK T47A (UniProt Q9YDF8 19-160, T47A); experiment: pull-down; details: both partners purified
T6 sequence: T1 sequence with T42A

[9] = molecular target: T7, VSDK Y46A (UniProt Q9YDF8 19-160, Y46A); experiment: pull-down; details: both partners purified
T7 sequence: T1 sequence with Y41A

[10] = molecular target: T8, VSDK R120A (UniProt Q9YDF8 19-160, R120A); experiment: pull-down; details: both partners purified
T8 sequence: T1 sequence with R115A

Molecule VSTx1 W7A (peptide) has a percent decrease in binding against wild-type VSTx1 [1] of 58%.

For `CSCC[C@@H]1NC(=O)[C@H](Cc2ccccc2)NC(=O)[C@H](CCCCN)NC(=O)CNC(=O)[C@@H](NC(=O)[C@H](CCC(=O)O)NC(=O)[C@@H](N)CO)CSSC[C@@H]2NC(=O)[C@@H]3CSSC[C@@H](C(=O)N[C@H](C(=O)N[C@@H](C)C(=O)N[C@@H](C)C(=O)N[C@@H](CO)C(=O)N4CCC[C@H]4C(=O)N[C@@H](Cc4ccccc4)C(=O)O)C(C)C)NC(=O)[C@H](Cc4c[nH]c5ccccc45)NC(=O)[C@H](CCCCN)NC(=O)[C@H](Cc4c[nH]c5ccccc45)NC(=O)[C@H](CCCNC(=N)N)NC(=O)[C@H](CO)NC(=O)[C@H](CO)NC(=O)[C@H](CSSC[C@H](NC(=O)[C@H](CCCCN)NC(=O)[C@H](Cc4c[nH]c5ccccc45)NC1=O)C(=O)N[C@@H](CCCCN)C(=O)N[C@@H](CC(N)=O)C(=O)N[C@@H](CO)C(=O)N[C@@H](CC(N)=O)C(=O)N[C@@H](CC(=O)O)C(=O)N3)NC(=O)[C@H](C(C)C)NC(=O)[C@H](CC(C)C)NC(=O)[C@H](CC(=O)O)NC(=O)[C@H](CCCCN)NC2=O` [L30A] (H-SECGKFMWKCKNSNDCCKDLVCSSRWKWCVAASPF-OH; disulfide 3-17, 10-22, 16-29), the “Partition coefficient (Kp) for binding to POPG liposomes” value (shortened to “Partition coefficient (Kp) for binding”) [2] was 0.55 × 10^5.

With `CSCC[C@@H]1NC(=O)[C@H](Cc2ccccc2)NC(=O)[C@H](CCCCN)NC(=O)CNC(=O)[C@@H](NC(=O)[C@H](CCC(=O)O)NC(=O)[C@@H](N)CO)CSSC[C@@H]2NC(=O)[C@@H]3CSSC[C@@H](C(=O)N[C@H](C(=O)N[C@@H](CC(C)C)C(=O)N[C@@H](C)C(=O)N[C@@H](CO)C(=O)N4CCC[C@H]4C(=O)N[C@@H](Cc4ccccc4)C(=O)O)C(C)C)NC(=O)[C@H](Cc4c[nH]c5ccccc45)NC(=O)[C@H](CCCCN)NC(=O)[C@H](Cc4c[nH]c5ccccc45)NC(=O)[C@H](C)NC(=O)[C@H](CO)NC(=O)[C@H](CO)NC(=O)[C@H](CSSC[C@H](NC(=O)[C@H](CCCCN)NC(=O)[C@H](Cc4c[nH]c5ccccc45)NC1=O)C(=O)N[C@@H](CCCCN)C(=O)N[C@@H](CC(N)=O)C(=O)N[C@@H](CO)C(=O)N[C@@H](CC(N)=O)C(=O)N[C@@H](CC(=O)O)C(=O)N3)NC(=O)[C@H](C(C)C)NC(=O)[C@H](CC(C)C)NC(=O)[C@H](CC(=O)O)NC(=O)[C@H](CCCCN)NC2=O` [R24A] (H-SECGKFMWKCKNSNDCCKDLVCSSAWKWCVLASPF-OH; disulfide 3-17, 10-22, 16-29) the “Partition coefficient (Kp) for binding” value [2] was 0.11 × 10^5.

In the case of `CSCC[C@@H]1NC(=O)[C@H](Cc2ccccc2)NC(=O)[C@H](CCCCN)NC(=O)CNC(=O)[C@@H](NC(=O)[C@H](CCC(=O)O)NC(=O)[C@@H](N)CO)CSSC[C@@H]2NC(=O)[C@@H]3CSSC[C@@H](C(=O)N[C@H](C(=O)N[C@@H](CC(C)C)C(=O)N[C@@H](C)C(=O)N[C@@H](CO)C(=O)N4CCC[C@H]4C(=O)N[C@@H](Cc4ccccc4)C(=O)O)C(C)C)NC(=O)[C@H](Cc4c[nH]c5ccccc45)NC(=O)[C@H](CCCCN)NC(=O)[C@H](Cc4c[nH]c5ccccc45)NC(=O)[C@H](CCCNC(=N)N)NC(=O)[C@H](CO)NC(=O)[C@H](CO)NC(=O)[C@H](CSSC[C@H](NC(=O)[C@H](CCCCN)NC(=O)[C@H](Cc4c[nH]c5ccccc45)NC1=O)C(=O)N[C@@H](CCCCN)C(=O)N[C@@H](CC(N)=O)C(=O)N[C@@H](CO)C(=O)N[C@@H](C)C(=O)N[C@@H](CC(=O)O)C(=O)N3)NC(=O)[C@H](C(C)C)NC(=O)[C@H](CC(C)C)NC(=O)[C@H](CC(=O)O)NC(=O)[C@H](CCCCN)NC2=O` [N13A] (H-SECGKFMWKCKNSADCCKDLVCSSRWKWCVLASPF-OH; disulfide 3-17, 10-22, 16-29), the “Partition coefficient (Kp) for binding” value [2] is reported as 2.7 × 10^5.

For VSTx1 K8A (peptide), the percent decrease in binding against wild-type VSTx1 [1] was 20%.

In the case of `CSCC[C@@H]1NC(=O)[C@H](Cc2ccccc2)NC(=O)[C@H](CCCCN)NC(=O)CNC(=O)[C@@H](NC(=O)[C@H](CCC(=O)O)NC(=O)[C@@H](N)CO)CSSC[C@@H]2NC(=O)[C@@H]3CSSC[C@@H](C(=O)N[C@H](C(=O)N[C@@H](CC(C)C)C(=O)N[C@@H](C)C(=O)N[C@@H](CO)C(=O)N4CCC[C@H]4C(=O)N[C@@H](Cc4ccccc4)C(=O)O)C(C)C)NC(=O)[C@H](Cc4c[nH]c5ccccc45)NC(=O)[C@H](CCCCN)NC(=O)[C@H](Cc4c[nH]c5ccccc45)NC(=O)[C@H](CCCNC(=N)N)NC(=O)[C@H](CO)NC(=O)[C@H](CO)NC(=O)[C@H](CSSC[C@H](NC(=O)[C@H](C)NC(=O)[C@H](Cc4c[nH]c5ccccc45)NC1=O)C(=O)N[C@@H](CCCCN)C(=O)N[C@@H](CC(N)=O)C(=O)N[C@@H](CO)C(=O)N[C@@H](CC(N)=O)C(=O)N[C@@H](CC(=O)O)C(=O)N3)NC(=O)[C@H](C(C)C)NC(=O)[C@H](CC(C)C)NC(=O)[C@H](CC(=O)O)NC(=O)[C@H](CCCCN)NC2=O` [K8A] (H-SECGKFMWACKNSNDCCKDLVCSSRWKWCVLASPF-OH; disulfide 3-17, 10-22, 16-29), the “Partition coefficient (Kp) for binding” value [2] is reported as 0.38 × 10^5.

For `CSCC[C@@H]1NC(=O)[C@H](Cc2ccccc2)NC(=O)[C@H](CCCCN)NC(=O)CNC(=O)[C@@H](NC(=O)[C@H](CCC(=O)O)NC(=O)[C@@H](N)CO)CSSC[C@@H]2NC(=O)[C@@H]3CSSC[C@@H](C(=O)N[C@H](C(=O)N[C@@H](CC(C)C)C(=O)N[C@@H](C)C(=O)N[C@@H](CO)C(=O)N4CCC[C@H]4C(=O)N[C@@H](Cc4ccccc4)C(=O)O)C(C)C)NC(=O)[C@H](Cc4c[nH]c5ccccc45)NC(=O)[C@H](CCCCN)NC(=O)[C@H](Cc4c[nH]c5ccccc45)NC(=O)[C@H](CCCNC(=N)N)NC(=O)[C@H](CO)NC(=O)[C@H](CO)NC(=O)[C@H](CSSC[C@H](NC(=O)[C@H](CCCCN)NC(=O)[C@H](C)NC1=O)C(=O)N[C@@H](CCCCN)C(=O)N[C@@H](CC(N)=O)C(=O)N[C@@H](CO)C(=O)N[C@@H](CC(N)=O)C(=O)N[C@@H](CC(=O)O)C(=O)N3)NC(=O)[C@H](C(C)C)NC(=O)[C@H](CC(C)C)NC(=O)[C@H](CC(=O)O)NC(=O)[C@H](CCCCN)NC2=O` [W7A] (H-SECGKFMAKCKNSNDCCKDLVCSSRWKWCVLASPF-OH; disulfide 3-17, 10-22, 16-29), the “Partition coefficient (Kp) for binding” value [2] was 0.77 × 10^5.

B1: VSTx1 (recombinant, wild type) (peptide)
chain: SECGKFMWKCKNSNDCCKDLVCSSRWKWCVLASPF
notes: also called WT VSTx1; spider-venom peptide VSTx1; not shown: His6, N-terminal, cleaved; MBP, N-terminal, cleaved
For B1, the Kd [3] was 140 µM, the “percent decrease in binding against wild-type VSDK” value [4] was 65% and the “percent decrease in binding against wild-type VSDK” value [5] was 59%. For the same molecule, the “percent decrease in binding against wild-type VSDK” value [6] was 58%, the binding result [7] was “binds” and the binding result [8] was “binds”. B1: binds [9]; binds [10].
